Measured values: US9304127B2, “Anti-adrenomedullin (ADM) antibody or anti-ADM antibody fragment for use in therapy” (ADRENOMED AG, priority 2011, dated 2016)

Target: T1, hADM (Homo sapiens, UniProt P35318)
T1 construct: comprises the amino acids 95 to 146 of pre-proADM; host or cells: added to human citrate plasma
T1 sequence (P35318 95-146): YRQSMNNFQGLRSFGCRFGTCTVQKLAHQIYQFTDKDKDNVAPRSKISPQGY
Experiment: Stability of human Adrenomedullin in human citrate plasma (hADM immunoassay)
Type: in vitro ADME
Settings: 24° C., hADM 10 nM, NT-H 100 μg/ml

- half life of hADM in the presence of NT-H: 18.3 h
B1: NT-H: murine monoclonal antibody raised against human ADM region 1-21 (SEQ ID: 15) (antibody, V domains shown)
VH: QVQLQQSGAELMKPGASVKISCKATGYTFSRYWIEWVKQRPGHGLEWIGEILPGSGSTNYNEKFKGKATITADTSSNTAYMQLSSLTSEDSAVYYCTEGYEYDGFDYWGQGTTLTVSS
VL: DVLLSQTPLSLPVSLGDQATISCRSSQSIVYSNGNTYLEWYLQKPGQSPKLLIYRVSNRFSGVPDRFSGSGSGTDFTLKISRVEAEDLGVYYCFQGSHIPYTFGGGTKLEIK
